test: soluble on expression in E. coli; label from the status in PepcDB or PDB records

Sequence | soluble on expression in E. coli
MIEIKNVNKVFYQGSKEILALKDINLHIAKGTIFGVIGSSGAGKSTLIRCVNMLEAPSSGSIIVDGVDLTTLSKKQLVETRRNIGMIFQHFNLLSSRTVFDNVALPLELAGKDKSQITTKVTELLKLVGLADKHESYPSNLSGGQKQRVAIARALASDPSVLLCDEATSALDPATTQSILELLKEINRKLNITILLITHEMEVVKSICHEVAIIGGGELVEKGTVGDIFAHPKTELAHEFIRSTLDLSIPEDYQARLQPNRVEGSYPLVRMEFTGATVDAPLMSQISRKYNIDVSILSSDLDYAGGVKFGMMVAELFGNEQDDSAAIEYLREHNVKVEVLGYVL | not soluble
MIEIKVPELAESITEGTISQWLLNVGDKVEKGGSVVELETDKVNVEIIAEDSGIVSKLLGEPGDTVEVGATIAILDANGAPVAVSTPAPAEQSKQETAEAPKAAAPSAEQTATLQGLPNTNRPIASPAARKMARELGIDLNDVRSTDPLGRVRPHDVQAHAAAPKEAPAAPKSPAPAPVAKTEFEKPVERVKMSRRRQTIAKRLVEVQQTSAMLTTFNEVDMTAIMELRKERKDAFEKKHDVRLGFMSFFTKAVVAALKQFPLLNAEIQGDELIIKKFYDIGIAVAAPDGLVVPVVRDANQLNFAEIESEIRELGKKARDNKLSLKELQGGTFTITNGGVFGSLMSTPILNSPQVGILGMHKIQVRPVAIDNERMENRPMMYIALSYDHRIVDGKEAVSFLVAVKDMLEDPKSLLLEG | not soluble
MIELAELTKTAGGLVIDQFTQKRERPDSRTMIGSGKLEQMRWAIEVGEIDTVIFNDRLSPRQNVNLEEALGVKVIDRMQLILDIFAMRARSHEGMLQVEEAQLNYLLPRLVGQGIMLSRQGGGIGSKGPGETKLETDRRYIRTRIENIDKALKKVEKTRENIRQKRSKSGIFRIGLIGYTNAGKSSIMNALVGLDKEQYEQNELFATLDATTKAVKLVEDFTVSLTDTVGFIQNLPTELIKAFKSTLEESANVDLLIHVVDASNPHHEIHEQTVLKIMEDLKLTNIPVLNVYNKMDIAPSDFLPTLSPSLQLSIKSESGVQWLKTAILEKLHELFDAFELELPYEKAYQLPELRKSALVQSVVEGEKGYLIKGLIAPELSWKLPNNLEHHHHHH | not soluble
MIELKGISQHFRGAGGTDVHALRDVDLSIDKGEIFGIIGRSGAGKSTLVRVINLLNRPTSGTVTVAGQSLTALNADGLRQARRKIGMIFQHFNLLSSRTVYDNVALPLELAGTPRERIREIVLPLLELVGLDAHKDRYPAQISGGQKQRVGIARALASQPDVLLSDEATSALDPETTRSILDLLRKINRELGLTIVLITHQMEVIKQVCDRVAVLDAGRVVELGRVIDVFLKPRHDVTRALIGEVISQELPPSVLARVESRLVAARERGGRDHLFRLAFTGAGVDQPVLAQAIRNYGLDFNILHGHIDEIQGQAFGSLAILASGESADIDNAMHFLREQGVVVEEINHVVLEHHHHHH | not soluble
MIEPGVNYADLFAKEVRKHPKKYPKTVRLAIDRWYRWKKRKDIWFDVDRANEMMDWVESFIVHTKGDMVGKPFLLEPWEKFIYSWIYGWVKENEKGQVVRVTREAYVQIPKKNGKTLIAVGALGYAMYGEGALSVDCYACASDFAQAQYAAKPFAATILNNPVLLDGTKIFKGPKGTVSSITYDYLHGDMAYTNKFIVQTKNIDNIEGSNPYFVLNDELHKQEKMEQYDNFKSAQISLPQPLMFNISTAGKGSSSVGIRVYKEAKEVLKRDDNDSNFVLIYEPNKGYDWTDRKVWEMCNPNWGISVDLSALESAFKTAQRSAHSKAEFLTKHLDVFVNGADNFFEQDQVEPCLVPTNELGNLSGEPCWIGLDLSKSRDLTCVSLNFPTWDAEGKAILKVKQLYFIPSENIDFREKEDNVPYSELAEQGFVEFCDGKLIDQEQIFHFIEDCMDFYDVQQVNYDPAMSDRLVEKLENLGLECVQVDQYARVLNSPLEDAERLFYEQRIMFDNPLFLYCALNVVVKMDFQGRKVPSKNQSKRKIDGFVAFLCAHKETMDQMIDVNEDDMDEYLDSIYR | not soluble
MIEVKPINAEDTYELRHRILRPNQPIEACMFESDLLRGAFHLGGYYGGKLISIASFHQAEHSELQGQKQYQLRGMATLEGYREQKAGSSLIKHAEEILRKRGADLLWCNARTSASGYYKKLGFSEQGEVFDTPPVGPHILMYKRIT | soluble
MIFAAIADIHGNCAALEAVLEDIAKLGIKDIVNLGDCFSGPLEAGFTGDVLVGNWIPSIRGNHDRELIERAPENMGSWEKPAHAQLTAAHLDWLHTLPFSMVFRDVAYCCHGSPLGDLDYWLETLSPEGVLKLRPLAEIEERAEGITQPLMLCGHTHIPRAVQLSDGRLIVNPGSVGCPGWKDDTPFDHHVEAGHALATYAVLEETGRGWQVYFRNIRYDNLAMSEMARVNGIPYLADALTNGWLKR | not soluble
MIFGRTERGKPPVEPVTLKILVAGGFGVGKTTLVGAVSEIRPLRTEEVLTEAGRPVDDISGVEGKHTTTVAMDFGRITLREDLVLYLFGTPGQDRFWFLWDELATGALGAVVLADTRRLEDCFAAVDYFERRSIPFVMGVNCFEEAARYPVEDVRRALDLDDDVPVVLCDARDRESVKEVLIDVVRHAMAHAAERRETVSGLEHHHHHH | not soluble
MIFGVSRTAGMQPHQNKLPPAFPICPPRFLQNKPPAPPLREAVRHSEYPDPRYEMTFQTAFAPPRFEYSGLTLNQDKATKPQTV | not soluble
MIFSDWPWRHWRQVRGEAIALRLNDEQLNWRELCARVDELASGFAVQGVVEDSGVMLRAWNTPQTLLAWLALLQCGARVLPVNPQLPQPLLEELLPNLTLQFALVPDGENTFPALTSLHIQRVEGAHVATWQPTRLCSMTLTSGSTGLPKAAVHTYQAHLASAEGVLSLIPFGDHDDWLLSLPLFHVSGQGIMWRWLYAGARMTVRDKQPLEQMLAGCTHASLVPTQLWRLLVNRSSVSLKAVLLGGAAIPVELTEQAREQGIRCFCGYGLTEFASTVCAKEADGLADVGSPLPGREVKIVNNEVWLRAASMAEGYWRNGQLVSLVNDEGWYATRDRGEMHNGKLTIVGRLDNLFFSGGEGIQTEEVERVIAAHPAVLQVFIVPVADKEFGHRPVAVMEYDHESVDLSEWVKDKLARFQQPVRWLTLPPELKNGGIKISRQALKEWVQRQQ | not soluble
MIGATGSGGTGGHNDVVRQGFICPFCMEDFGEYERLICHVENDHPEEDSSDLAGMFVSNVKGFFDKAKRGIQKLDAKKSIADLASNVETEFTETTEKLVERAPLPRIPKPLPPDEILPGTRRSKTREFLSTRELNINEVAVRTNMLIIRLDRLINGGPKDKDPVKRKEFEREVVPWLDDAEAVCCPLCASRFGLTRRRHHCRLCGRVLCHSCSKFLSFDTAKTLTSSSNPLGDTHIIVEEPNTVENEQELLQPEENGRRSFFSLSQKSMDKMKRAMAGAVQKVHSAATGEEIIAGALNEQDLSEHMRVCNLCLRDLHFRESQMDKKEPPEFVQQYDLMKVMIEEVKNLVPTYVRVVTSLKNGESVYSHKHGEELRSKCLEIQKSIDYVSKKIAEGANDKPNSAKEQQLRKNIRLYAVQALQGLIGQMESLPTAEECSNLIIKRKERRAKDFARVNRTVMKMSSSMPQLQEQHSHLNSTSSVSSFGGPSSIDDGWSAEDNDLVFEPSSIEDDTIQTDHPLYEQREQLRKFLFQASATGKLDEMDILERNLKEIEEEMMRLGLSC | not soluble
MIGGGIGISFRNEFFNPQTPVNIPVQGFSNGARLRLVLLPTSADSRFHINLRTPDDIVLHFNARFDEGAVVNNSTSGGGWQSEDRHANPFQQNKIYTLEFVSNGGIISIFVNGAHFADFVERTPSHGVHLIEIEGGVHVHSAHVSH | soluble
MIGQEFRQLLIDKWGYSYDVQLRRTQGKIFLQVMWKYLEQASFPLSESQYQEHLDSITNYLNALGGTIQVQTFITQTKERPRLGKAVSIPLDLGDRSSEWIL | not soluble
MIGSYLKIDSKPLSYQSSKAVLKHLDYNSRFQLHEQCPSLRNVLKVTPGFLNRLEFVGDCVKINGTTYQLKMTPVKLGSTTNHIQLWINGNLYAKTVSEPQNNKELAYLVCKLLRQAWEAVLYVGTLVYGNLIFPGFPKFFKFHVQHLVIGKDQDASDVLRRFGENFQNSSFKSLELFRTSSFEVPLIQSAEKLIINERMDLSALKSRRVHVEFKIDSKFLTDLIDCWLWNGAVGKTEKEAGSVFIFAMKGFREARMFVDDVKMKFEGKFYVDKR | not soluble
MIGYFIITGFAAATLALSTCNLKKVRKPPPATPAKPPAPQKTLKVAPRAAPPRKKKEIFLEEHTPPSTDTDEVSTIPPAEQIRIVENHRRRIGVRPRAGNRVYKKTPSSELVKVENKKSVEKNCKVVKTESGEAEACEKKEDKRNVEKNKKKEKESKEKSKNCYEKKELKKNGSESYAYKKYNKQKNEHIEILVKKTVLRQIRF | not soluble
MIHEITLDGKIVRYKVVEKPVKYVTLRFLEDGTLLVVTPSKEIVREVLIKKRNWILSKLSIIEEAKELAGEGFPLFGRFYSLEIGEKFEIDDKNRIIIYPGIDVLRDWIKKEVKRRAQEISKEFGVAPKRIYVRVMKTKWGSTTWRKSVTLNLSSVALPEELFHYLVIHELAHLIELNHSKRFWSIVARYHPDYKEKRRELKKWWFIVHLNETWRAILQWPGGGSSSSWALEHHHHHH | soluble
MIIDEKRVQEIKNGETSLGIEFGSTRIKAVLIANDFSILASGSFEWETSLENGVWTYSIDEIWKGLQYSYQKLFAEVKEKYGVVLSKIGSIGFSAMMHGYMAFDNKGELLVPFRTWRNTMTEEAAKKLTDLFKFNIPERWSIAHLYQAILRNEPHVEKIDFLTTLAGYIHWQLTGEKVLGIGDASGMFPIDTQTHNYDKNMLETFKNLPEVKKHSLDLEKLLPKVLLAGENAGVLTLEGAKKLDVSGNLQPGIPLCPPEGDAGTGMVATNSVAPRTGNVSAGTSIFAMVVLEKPLNRVHPEIDIVTTPSGDLVAMVHANNGCSDLEAWVNIFQQFTEAINVDMRKDLLYMALYTQAFQGDPDCGGVLAYNYFAGENITGVSEGRPMVVRKAKSNFNLPNFMRAHLFTSLGALKIGMDILLKDEAVKLDKLLGHGGLFKTPIVGQAAVAGAVNAPVSVMETAGEGGAWGIALLASYLRSKENDSTLPEFLSKNVFAGYVAEEVQPDPKDVKGFEEFIERYKKGIAIEQAAVEHLILEHHHHHH | not soluble
MIIGYFDGLCEPKNPGGIATFGFVIYLDNRKIEGYGLAEKPFSINSTNNVAEYSGLICLMETMLRLGISSPIIKGDSQLVIKQMNGEYKVKAKRIIPLYEKAIELKKKLNATLIWVPREENKEADRLSRVAYELVRRGKLRDIGCIILT | soluble
MIIREATVQDYEEVARLHTQVHEAHVKERGDIFRSNEPTLNPSFFQAAVQGEKSTVLVFVDEREKIGAYSVIHLVQTPLLPTMQQRKTVYISDLCVDETRRGGGIGRLIFEAIISYGKAHQVDAIELDVYDFNDRAKAFYHSLGMRCQKQTMELPLLEHHHHHH | soluble
MIITTTPTVENRQIIEYKGLVFGEVVAGANIIRDFFASITDMIGGRSGVYEDKLNVARQEALVELQKQARNIGANAVIGVSIQYQSMGKKDMFIIVATGTAVVIGLEHHHHHH | not soluble
MIKAILIFNNHGKPRLCKFYQHYSEDTQQQIIRETFHLVSKRDENVCNFLEGGLLIGGSDNKLIYRHYATLYFVFCVDSSESELGILDLIQVFVETLDKCFENVCELDLIFHVDKVHNILAEMVMGGMVLETNMNEIVTQIDA | soluble
MIKDPRPLNDKAFIQQCIRQLCEFLTENGYAHNVSMKSLQAPSVKDFLKIFTFLYGFLCPSYELPDTKFEEEVPRIFKDLGYPFALSKSSMYTVGAPHTWPHIVAALVWLIDCIKIHTAMKESSPLFDDGQPWGEETEDGIMHNKLFLDYTIKCYESFMSGADSFDEMNAELQSKLKDLFNVDAFKLESLEAKNRALNEQIARLEQERSTANKANAERLKRLQKSADLYKDRLGLEIRKIYGEKLQFIFTNIDPKNPESPFMFSLHLNEARDYEVSDSAPHLEGLAEFQENVRKTNNFSAFLANVRKAFTATVYQ | soluble

Source: the DeepSol protein solubility set
